From patent publication US20050287132A1, “Biliverdin reductase fragments and variants, and methods of using biliverdin reductase and such fragments and variants” (University of Rochester, priority 1999, published 2005)

How the values were obtained:
[1] = system: PKC (a mixture containing equal amounts of isozymes α, β and γ); test: Overlay assay for PKC binding by rat BVR; settings: 2 μg rat liver BVR, 500 ng/ml PKC
Procedure: The physical interaction of BVR with PKC was assessed using an overlay assay based on that described by Wolf and Sahyoun (J. Biol. Chem. 261:13327-13331 (1986), which is hereby incorporated by reference) with known modifications (Chapline et al., J. Biol. Chem. 268:6858-6861 (1993), which is hereby incorporated by reference). Purified rat liver BVR (2 μg) was subjected to SDS-PAGE and transferred to nitrocellulose membrane. The membrane was blocked, washed, and then overlaid with a solution containing 500 ng/ml of PKC (a mixture containing equal amounts of isozymes α, β and γ) (Promega) in TBS containing 10 mg/ml BSA, 20 μg/ml phosphatidylserine, 1 mM EGTA, 1.2 mM CaCl2, 10 μg/ml leupeptin and 10 μg/ml aprotinin. After incubation for 1 h at room temperature, the blot was extensively washed with the PBS containing the same supplements as the overlay solution, but lacking the kinase mixture. The protein on the membrane was fixed by incubation in 0.5% formaldehyde in PBS and then reactive aldehyde groups were blocked by incubation in 2% glycine in TBS for 20 min at room temperature. The membrane was then washed 3 times with TBS and was cut in two, one half was subjected to Western blot analysis using a 1:1000 dilution of anti-PKC for 2 h at room temperature as the primary antibody, while the second half was probed with rabbit anti-rat BVR as detailed above for Western blotting. […]

HO-1 = test: BVR kinase activity, 32P incorporation into exogenous substrate; format: biochemical, rat
Procedure: (§1) Incubation time was 8 min at 30° C.

HO-2 = test: as above; format: biochemical, rat
Procedure: as §1

histone III-S = test: as above; format: biochemical
Procedure: as §1

[2] = Reductase activity of BVR purified from rat liver; format: biochemical; settings: purified to homogeneity
Procedure: BVR was purified from rat liver to homogeneity (3,000 nmol bilirubin/min/mg protein) as described before (O'Carra et al., J. Biochem. 125:110P (1971), which is hereby incorporated by reference), with modifications (Huang et al., J. Biol. Chem. 264:7844-7849 (1989), which is hereby incorporated by reference). Activity was determined at pH 8.7 with NADPH in Tris-HCl with […] in potassium phosphate buffer. The substrate concentration was 5 μM. The rate of activity was measured by the increase in 450 nm absorbance at 25° C. The purified reductase, which was judged to be homogenous by SDS-PAGE, stained with Coomasie Brilliant Blue (Sigma), was used for preparation of polyclonal antibody in New Zealand rabbits (O'Carra et al., J. Biochem. 125:110P (1971), which is hereby incorporated by reference). Protein concentration was determined by Bradford's method (Bradford, Anal. Biochem. 72:248-254 (1976), which is hereby incorporated by reference).

MBP = settings: ^32P incorporation
Procedure: Kinase reactions were carried out based on the assay as described by Roskoski (Roskoski, Methods Enzymol. 99:3-6 (1983), which is hereby incorporated by reference) in a 50 μl volume in a reaction buffer consisting of 20 mM Tris HCl (pH 7.4) containing 10 mM MgCl2, 50 mM unlabeled ATP, 5 μCi [γ^32 P]-ATP and 1 mg/ml substrate. Substrates used were prepared as 10 mg/ml stock in 0.2 M Tris-HCl (pH 7.4) and stored at -20° C. The substrates utilized were MBP and histone III-S (Sigma) and E. coli expressed purified preparations of full length rat HO-1 and HO-2 (McCoubrey et al., J. Biol. Chem. 272:12568-12574 (1997), which is hereby incorporated by reference). The substrate/reaction buffer was incubated at 30° C. for 4 min prior to the addition of 5 μl of enzyme source (2 mg/ml BVR, 0.5 μg/ml PKC) or enzyme vehicle (GST-PBS containing 10% glycerol). Samples were mixed by aspiration and were then incubated for 8-15 min at 30° C. An aliquot (40 μl) from the reaction mixture was spotted onto a P81 (Whatman) filter, which was immediately immersed in 75 mM phosphoric acid for ≧5 min. Filters were washed 5× for 5 min each in 75 mM phosphoric acid and then 1× for 5 min with acetone before being air dried and counted by liquid scintillation counting in 10 ml ScintiVerse BD (Fisher). […] Activity was determined as ^32P counts incorporated into the acceptor protein per minute. […]

biliverdin reductase [3] = biological target: T1, biliverdin reductase (Rattus norvegicus, UniProt P46844); test: Autophosphorylation of biliverdin reductase, in blot method with [γ^32P]-ATP; format: biochemical; settings: PVDF bound, denatured/renatured
T1 sequence (P46844 3-295): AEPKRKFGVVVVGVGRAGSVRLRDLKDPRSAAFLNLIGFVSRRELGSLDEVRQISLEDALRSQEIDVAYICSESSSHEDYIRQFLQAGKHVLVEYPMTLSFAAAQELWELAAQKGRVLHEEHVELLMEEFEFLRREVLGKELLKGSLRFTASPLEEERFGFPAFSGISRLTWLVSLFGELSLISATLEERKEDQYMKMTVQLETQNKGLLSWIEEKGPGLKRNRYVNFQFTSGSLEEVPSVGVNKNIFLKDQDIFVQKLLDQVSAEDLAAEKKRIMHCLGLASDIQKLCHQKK
Text: The ability of the reductase to phosphorylate itself was examined using the in blot method of Ferrell and Martin (Ferrell et al., Methods Enzymol. 200:430-435 (1991), which is hereby incorporated by reference). Purified wild type or mutant proteins were used.
The ability of the reductase to phosphorylate itself was examined using the in blot method of Ferrell et al., Methods Enzymol. 200:430-435 (1991), which is hereby incorporated by reference. Following electrophoresis on 12.5% SDS-PAGE plus thioglycolate (0.002%), the protein was transferred to PVDF membrane (Millipore). The blot was denatured for I h at room temperature in 7 M guanidine-HCl (pH 8.3) containing 50 mM Tris-base, 50 mM dithiothreitol and 2 mM EDTA and the bound protein was allowed to renature overnight at 4° C. then incubated at room temperature for 4 h in freshly prepared labeling mix containing 10 μCi/ml [γ^32P]-ATP. The membrane first with 30 mM Tris-HCl (pH 7.4) then for 10 min each with 250 ml of the following: with 30 mM Tris-HCl (pH 7.4) twice; with the same buffer containing 0.5% (v/v) NP-40 once; with the Tris buffer twice; with 1 M KOH once; with the Tris buffer, twice . The membrane was blotted, dried, wrapped in plastic wrap, and exposed for autoradiography.

biliverdin reductase [4] = biological target: T1, biliverdin reductase; test: Western blot analysis of phosphorylation of purified rat liver BVR; format: biochemical; settings: individual anti-phosphotyrosine, -serine, -threonine antibodies
Procedure: 2D-IEF was performed essentially as detailed previously (Huang et al., J. Biol. Chem. 264:7844-7849 (1989), which is hereby incorporated by reference). The first dimension separation of 3.5 μg of the reductase was carried out by isoelectric focusing (Righetti et al., J Chromatogr. 98:271-321 (1974), which is hereby incorporated by reference) using ampholytes with a 4-6.5 pH range. Electrofocusing was carried out for 17 h at 400 volts then for an additional hour at 800 volts. After focusing, the second dimension separation was carried out using 12.5% SDS polyacrylamide gel. […] The secondary antibody was goat anti-rabbit horseradish peroxidase (Zymed) at a 1:1000 dilution. Detection was carried out using the ECL reagent kit (NEN) according to the manufacturer's instructions. Phosphorylation molecular weight markers were used (Zymed). Soybean trypsin inhibitor (pI 4.55), β-lactoglobin A (pI 5.13), bovine carbonic anhydrase (pI 5.85), and human carbonic anhydrase B (pI 6.57) were used as IEF standards. Immunoblotting was performed by the method of Towbin et al, Proc. Nat. Acad. Sci. USA 76:4350-4354 (1979), which is hereby incorporated by reference. Primary and secondary antibody treatments and staining for peroxidase with 4-chloro-1 -naphthol were performed as described previously (Huang et al., J. Biol. Chem. 264:7844-7849 (1989), which is hereby incorporated by reference).

PKC = test: Effect of BVR and peptides on PKC activity (MBP substrate, kinetic analysis); format: biochemical
Procedure: FIGS. 11A-C are graphs depicting the role of BVR in increasing protein kinase C activity. FIG. 11A depicts the dose-dependence of PKC activity in the presence of BVR or PKC inhibitor peptide (“PKCI”) in an assay system containing 0.5 μg/ml PKC, 50 μM unlabeled ATP, 5 μCi[^32γP]-ATP and 1 mg/ml MBP and carried out as described infra. FIGS. 11B-C are the kinetic analyses of PKC activity carried out with respect to MBP (FIG. 11B) and with respect to ATP (FIG. 11C) in the presence or absence of 50 μM BVR.
FIGS. 12A-C are graphs illustrating the effect of various rBVR fragments on PKC activity. Protein kinase C was incubated at 30° C. with buffer or with the indicated peptides (50 μM) for 15 min prior to addition to a kinase assay using MBP as substrate. FIG. 12A depicts the relative activity for each sample normalizing to that of the PKC and buffer control value. FIGS. 12B-C are the kinetic analyses of PKC with respect to substrate MBP (FIG. 12B) and ATP (FIG. 12C) in the presence or absence of BVR peptide fragments (50 μM). BVR1 peptide corresponds to SEQ. ID. No. 34 and BVR2 peptide corresponds to SEQ. ID. No. 19.
as §1

[5] = in the presence of 50 μM BVR or peptide

B1: BVR: rat biliverdin reductase, SEQ. ID. No. 4, purified from rat liver (Example 3) (protein, listed as Rattus norvegicus)
chain: MDAEPKRKFGVVVVGVGRAGSVRLRDLKDPRSAAFLNLIGFVSRRELGSLDEVRQISLEDALRSQEIDVAYICSESSSHEDYIRQFLQAGKHVLVEYPMTLSFAAAQELWELAAQKGRVLHEEHVELLMEEFEFLRREVLGKELLKGSLRFTASPLEEERFGFPAFSGISRLTWLVSLFGELSLISATLEERKEDQYMKMTVQLETQNKGLLSWIEEKGPGLKRNRYVNFQFTSGSLEEVPSVGVNKNIFLKDQDIFVQKLLDQVSAEDLAAEKKRIMHCLGLASDIQKLCHQKK
- PKC binding (overlay, anti-PKC Western) [1]: PKC-interactive protein
- HO-1 as substrate for BVR phosphotransferase activity (HO-1): not substrates
- HO-2 as substrate for BVR phosphotransferase activity (HO-2): not substrates
- phosphate transferred by BVR to histone III-S (histone III-S): ~1,000 cpm/min
- specific activity of purified rat liver BVR [2]: 3,000 nmol bilirubin/min/mg protein
- phosphate transferred by BVR to MBP (MBP): ~4,000 cpm/min
- autophosphorylation (biliverdin reductase [3]): able to phosphorylate itself
- phosphoamino acids present (biliverdin reductase [4]): esterified on tyrosine (panel b), serine (panel c), and threonine (panel d) residues
- effect on Km of the PKC reaction with respect to ATP (PKC; BVR 50 μM): negligible
- dose dependence of PKC activity (^32P into MBP) (PKC; PKC preincubated 15 min at 30° C., MBP substrate): increased in a dose-dependent manner
- Vmax of the PKC reaction with respect to ATP (PKC; [5]): 2.9 pmol/min
- Vmax of the PKC reaction with respect to MBP (PKC; [5]): 4.9 pmol/min
- substrate Km of the PKC reaction (PKC; upon addition of BVR (50 μM), MBP): 0.16 mg/mL
